In PMC12809855, “Biochemical and Mechanistic Insights into O2 Scavenging and Stability of the Soluble Hydrogenase from Hydrogenophaga pseudoflava” (ACS Omega, 2025) one finds Km and kcat data, which are given here for one protein.

Substrate in the data set: NC(=O)c1ccc[n+]([C@@H]2O[C@H](COP(=O)(O)OP(=O)(O)OC[C@H]3O[C@@H](n4cnc5c(N)ncnc54)[C@H](O)[C@@H]3O)[C@@H](O)[C@H]2O)c1
Briefly: purified protein. It is filed as biochemical, Hydrogenophaga pseudoflava. Particulars: H2-saturated buffer, 50 mM Tris-HCl, no additional salt, pH 7, 30 °C, 1 mM TCEP, 1 μM FMN, kcat apparent.

B1: HpSH (soluble hydrogenase from Hydrogenophaga pseudoflava, HoxFUYH) (Hydrogenophaga pseudoflava) (protein)
chain: MTAFDQPSALHAADAVLARWQHDPHALVQVLRETQAQTHWLPRELLAHIAAALRLTTAHVEGVASFYRFFHLRPVGRVHVLFSDNITDRMAGSDALMARLCARLGVAPGQVDAQGRFCVDRCSCTGLCDQGPALLVNHHQVVTRLDAGRVDQLAERLLAGVPPEDWPADWFAVEDHVRRADVLLQGLPADAPSLPAVLSRTPAELLAEVERSGLRGRGGAGFPTARKWRACAEADAPDGQRCVVCNADEGEPGTFKDRVLLGRHADELFDGMTLAARAIGAQTGLVYLRGEYRFLLPQLEAVLQRRRANGLLGRNAGGVAGFDFDIAIHLGAGAYVCGEESALIESLEGQRGTPRIRPPFPVQRGYLGRPTVVNNVETLVAVAHIARRGGAWWAGLGTPESTGTKIHSVSGDCERPGLYEYPLGTPLAQILADCGARNAQAVQVGGPSGSCVPASGFHRAIAFEDLPSAGALMVFDQTRDLFEVARHFARFFAHESCGLCTPCRVGTELVVRRLDKLAHERGAGRGSAFDIARLQELDALLHSGTHCGLGVSACNPLRDTLAHFGQAYAQRSTAAQFQPGIDLDAELSSARRATGRQDRGAHLNTEHGA
notes: full-length HoxFUYH heterotetramer, N-terminal Strep-tag on HoxF, coexpressed with endopeptidase HoxW (HoxH C-terminally processed), homologous expression in H. pseudoflava from pOCEx1; no HoxI; preparation has excess HoxF; with NAD-reducing hydrogenase HoxS subunit gamma; NAD-reducing hydrogenase HoxS subunit delta; NAD-reducing hydrogenase HoxS subunit beta
Take B1: the Km was found to be 400 ± 140 µM and the catalytic constant (kcat) came out at 137 ± 20 s⁻¹.

Usually Km stands for the concentration of substrate that gives half-maximal velocity. Broadly, the kcat is the maximal rate divided by the concentration of active sites.
